Key:
HLA-B*07:0 = HLA-B*07:0 (Homo sapiens, UniProt P01889); experiment: MHC binding assay, UV-ligand exchange ELISA; conditions: peptide exchange yield, binding to HLA-B*07:0
Description: (§1) Candidate peptides for T cell based therapies according to the present invention were further tested for their MHC binding capacity (affinity). The individual peptide-MHC complexes were produced by UV-ligand exchange, where a UV-sensitive peptide is cleaved upon UV-irradiation and exchanged with the peptide of interest as analyzed. Only peptide candidates that can effectively bind and stabilize the peptide-receptive MHC molecules prevent dissociation of the MHC complexes. To determine the yield of the exchange reaction, an ELISA was performed based on the detection of the light chain (β2m) of stabilized MHC complexes. The assay was performed as generally described in Rodenko et al. (Rodenko et al., 2006).
(§2) 96 well MAXISorp plates (NUNC) were coated over night with 2 μg/ml streptavidin in PBS at room temperature, washed 4× and blocked for 1 h at 37° C. in 2% BSA containing blocking buffer. Refolded HLA-A*02:01/MLA-001 monomers served as standards, covering the range of 15-500 ng/ml. Peptide-MHC monomers of the UV-exchange reaction were diluted 100-fold in blocking buffer. Samples were incubated for 1 h at 37° C., washed four times, incubated with 2 μg/ml HRP conjugated anti-82m for 1 h at 37° C., washed again and detected with TMB solution that is stopped with […]. Absorption was measured at 450 nm. Candidate peptides that show a high exchange yield (preferably higher than 50%, most preferred higher than 75%) are generally preferred for a generation and production of antibodies or fragments thereof, and/or T cell receptors or fragments thereof, as they show sufficient avidity to the MHC molecules and prevent dissociation of the MHC complexes.

[1] = system: HLA-A*01:01, HLA-A*02:01, HLA-A*03:01, HLA-A*24:02, HLA-B*07:02, HLA-B*08:01 and HLA-B*44:02; experiment: HLA alleles the peptides bind to (Table 7); format: binding, human; conditions: allotype from the group HLA-A*01:01, HLA-A*02:01, HLA-A*03:01, HLA-A*24:02, HLA-B*07:02, HLA-B*08:01, HLA-B*44:02
Description: However, due to similarities in binding pattern such as the relevant anchoring positions some peptides bind to more than one allele, such an overlap is most likely, but not limited to, HLA-A*01 binding peptides also binding to HLA-B*15, HLA-A*03 binding peptides also binding to HLA-A*11, HLA-B*07 binding peptides also binding to HLA-B*35 and HLA-B*51.

HLA-A*03:01 = HLA-A*03:01 (Homo sapiens, UniProt P04439); experiment: MHC binding assay, UV-ligand exchange ELISA; conditions: peptide exchange yield, binding to HLA-A*03:01
Description: as §1, §2

Substance	Peptide exchange (HLA-B*07:0)	Peptide exchange (HLA-A*03:01)	Binders (HLA alleles the peptides according to the invention bind to) [1]
41 (APQPRSLAA; listed as Homo sapiens) [compound 41]	++++ (≥75% = ++++)	–	–
52 (SPLPHLGPL; listed as Homo sapiens) [compound 52]	+++ (≥50% = +++)	–	–
55 (SPVSASWIL; listed as Homo sapiens) [compound 55]	++++ (≥75% = ++++)	–	–
59 (AVDLGVLEL; listed as Homo sapiens) [compound 59]	+++ (≥50% = +++)	–	–
63 (MPANFETIGF; listed as Homo sapiens) [compound 63]	++++ (≥75% = ++++)	–	–
64 (LPTRSLPAF; listed as Homo sapiens) [compound 64]	+++ (≥50% = +++)	–	–
66 (RPLILIRI; listed as Homo sapiens) [compound 66]	++ (≥20% = ++)	–	–
77 (YPDVPIGQL; listed as Homo sapiens) [compound 77]	+++ (≥50% = +++)	–	–
78 (TPSHSTPSF; listed as Homo sapiens) [compound 78]	+++ (≥50% = +++)	–	–
85 (LPHPVNSGL; listed as Homo sapiens) [compound 85]	+++ (≥50% = +++)	–	–
93 (SPIGLSLIL; listed as Homo sapiens) [compound 93]	++++ (≥75% = ++++)	–	–
96 (HPRESLNMLVAF; listed as Homo sapiens) [compound 96]	++++ (≥75% = ++++)	–	–
100 (SPAPSLARFLSL; listed as Homo sapiens) [compound 100]	++++ (≥75% = ++++)	–	–
103 (RPWLSSPTGL; listed as Homo sapiens) [compound 103]	++++ (≥75% = ++++)	–	–
109 (MPKLFLTAC; listed as Homo sapiens) [compound 109]	++++ (≥75% = ++++)	–	–
114 (VPHHLLSSV; listed as Homo sapiens) [compound 114]	++++ (≥75% = ++++)	–	–

Substance	Peptide exchange (HLA-B*07:0)	Peptide exchange (HLA-A*03:01)	Binders (HLA alleles the peptides according to the invention bind to) [1]
126 (NPELLVILL; listed as Homo sapiens) [compound 126]	+++ (≥50% = +++)	–	–
129 (IPISIFKMA; listed as Homo sapiens) [compound 129]	+++ (≥50% = +++)	–	–
134 (MPCTTILRI; listed as Homo sapiens) [compound 134]	++++ (≥75% = ++++)	–	–
152 (KIMEILNLK; listed as Homo sapiens) [compound 152]	–	++++ (≥75% = ++++)	HLA-A*03:01
156 (SLRVPSPAL; listed as Homo sapiens) [compound 156]	+++ (≥50% = +++)	–	–
157 (APLRAGWAA; listed as Homo sapiens) [compound 157]	++++ (≥75% = ++++)	–	–
159 (ASAIPAGAK; listed as Homo sapiens) [compound 159]	–	+++ (≥50% = +++)	HLA-A*03:01
162 (LPVHGPLPLLL; listed as Homo sapiens) [compound 162]	+++ (≥50% = +++)	–	–
169 (RPQGVGPAA; listed as Homo sapiens) [compound 169]	++++ (≥75% = ++++)	–	–
175 (MPFLKVPPL; listed as Homo sapiens) [compound 175]	++++ (≥75% = ++++)	–	–
185 (MPAFLSRASAL; listed as Homo sapiens) [compound 185]	++++ (≥75% = ++++)	–	–
187 (RLCPAAPTGK; listed as Homo sapiens) [compound 187]	–	++++ (≥75% = ++++)	HLA-A*03:01
193 (ILQLITVNR; listed as Homo sapiens) [compound 193]	–	+++ (≥50% = +++)	HLA-A*03:01
198 (MTYQQPFSNR; listed as Homo sapiens) [compound 198]	–	++++ (≥75% = ++++)	HLA-A*03:01
205 (SLIPIVPFKS; listed as Homo sapiens) [compound 205]	–	++ (≥20% = ++)	HLA-A*03:01
209 (AILLPQLPK; listed as Homo sapiens) [compound 209]	–	++++ (≥75% = ++++)	HLA-A*03:01

The next lines start with results.

Peptide exchange (HLA-B*07:0)	Peptide exchange (HLA-A*03:01)	Substance	Binders (HLA alleles the peptides according to the invention bind to) [1]
+++ (≥50% = +++)	–	15 (SPVETRSLL; listed as Homo sapiens) [compound 15]	–
+++ (≥50% = +++)	–	89 (SPSSPLLLLA; listed as Homo sapiens) [compound 89]	–
++++ (≥75% = ++++)	–	110 (APSLARFLSL; listed as Homo sapiens) [compound 110]	–
++++ (≥75% = ++++)	–	111 (RPIWDVRSA; listed as Homo sapiens) [compound 111]	–
+++ (≥50% = +++)	–	120 (APGPRSQGL; listed as Homo sapiens) [compound 120]	–
+++ (≥50% = +++)	–	124 (SPSSNSREL; listed as Homo sapiens) [compound 124]	–
++++ (≥75% = ++++)	–	137 (MPIQVLKGL; listed as Homo sapiens) [compound 137]	–
+++ (≥50% = +++)	–	140 (QPAPQPLL; listed as Homo sapiens) [compound 140]	–
–	+++ (≥50% = +++)	150 (IVFLLQQGEK; listed as Homo sapiens) [compound 150]	HLA-A*03:01
–	++++ (≥75% = ++++)	151 (AVFVNWEQTKK; listed as Homo sapiens) [compound 151]	HLA-A*03:01
–	+++ (≥50% = +++)	154 (TVTSAIVNR; listed as Homo sapiens) [compound 154]	HLA-A*03:01
++++ (≥75% = ++++)	–	155 (MPWVLMSPF; listed as Homo sapiens) [compound 155]	–
–	+++ (≥50% = +++)	161 (ILAASFQAR; listed as Homo sapiens) [compound 161]	HLA-A*03:01
–	++++ (≥75% = ++++)	166 (VIFLHQPPK; listed as Homo sapiens) [compound 166]	HLA-A*03:01
–	+++ (≥50% = +++)	174 (LSGPVTFLR; listed as Homo sapiens) [compound 174]	HLA-A*03:01
–	++++ (≥75% = ++++)	178 (SLFGGLFTR; listed as Homo sapiens) [compound 178]	HLA-A*03:01
–	++++ (≥75% = ++++)	179 (MIFSGVFLR; listed as Homo sapiens) [compound 179]	HLA-A*03:01
+++ (≥50% = +++)	–	182 (RPSLPCRSF; listed as Homo sapiens) [compound 182]	–
++ (≥20% = ++)	–	184 (VVHGGMSIF; listed as Homo sapiens) [compound 184]	–
–	+++ (≥50% = +++)	190 (STQSSLLYLK; listed as Homo sapiens) [compound 190]	HLA-A*03:01
++++ (≥75% = ++++)	–	191 (APLLPGPAA; listed as Homo sapiens) [compound 191]	–
++++ (≥75% = ++++)	–	192 (IPLHFSTAF; listed as Homo sapiens) [compound 192]	–
–	+++ (≥50% = +++)	202 (KLLLLSSVK; listed as Homo sapiens) [compound 202]	HLA-A*03:01
–	+++ (≥50% = +++)	203 (AILVPQPPK; listed as Homo sapiens) [compound 203]	HLA-A*03:01
–	+++ (≥50% = +++)	204 (VVRASSGLK; listed as Homo sapiens) [compound 204]	HLA-A*03:01
–	++++ (≥75% = ++++)	213 (TLLSFKTVLFK; listed as Homo sapiens) [compound 213]	HLA-A*03:01
